From US9096681B2, “XBP1, CD138, and CS1 peptides” (Dana-Farber Cancer Institute, Inc., priority 2008, dated 2015)

Target: HLA-A2 molecules on the surface of human T2 cells (Homo sapiens, UniProt P04439, D140Y/D185E/D98H/E176V/E277Q/G131W/G231S/I119V/I121R/I166T/I218V/L300P/L318F/N151K/N90K/P208A/P217A/Q86G/Q94H/R138H/R169H/T345S)
Test: Peptide stability assay (peptide/HLA-A2 binding stability post-Brefeldin A)

Row | Sequence | HLA-A2 binding stability (CD138 peptide (FIG. 12), 0 hr, 2 hr, 4 hr, 6 hr, or overnight) | HLA-A2 binding stability (non-spliced XBP1 peptides (FIG. 2), 0, 2, 4, 6 and 18 hours post-Brefeldin A)
1 | GLVGLIFAV (listed as Homo sapiens) [CD138 #2p, native CD138 peptide] | nearly equivalent to influenza virus protein matrix peptide58-66 | 
2 | NISPWILAV (listed as Homo sapiens) [XBP1184-192, native non-spliced XBP1 peptide] |  | significantly lower level of HLA-A2 binding stability as compared to the influenza virus protein matrix peptide58-66
